In PMC5346638, “Azadiradione ameliorates polyglutamine expansion disease in Drosophila by potentiating DNA binding activity of heat shock factor 1” (Oncotarget, 2016):

Experiments:
[1] = tested on: his6-HSF1 (codon-optimized) (Homo sapiens); assay: EMSA; conditions: Fluorescence: 2 uM HSF1, 0-10 uM HSE, room temperature, buffer not given; EMSA: 0.5 uM protein or 50 ug WCE, 1 ng 32P-HSE, buffer per cited reference, 4% PAGE
[2] = tested on: his6-HSF1 (codon-optimized) (Homo sapiens); assay: tryptophan fluorescence quenching; conditions: room temperature, Fluorescence: 2 uM HSF1, 0-10 uM HSE, buffer not given, EMSA: 0.5 uM protein or 50 ug WCE, 1 ng 32P-HSE, buffer per cited reference, 4% PAGE
[3] = molecular target: T1, heat shock factor 1 (HSF1) (Homo sapiens, UniProt Q00613); assay: intrinsic tryptophan fluorescence titration, Scatchard plot; supported by EMSA, CD, light scattering; format: binding
T1 construct: purified full length HSF1, N-terminal his6 tag, expressed in E. coli
T1 sequence (Q00613 1-529): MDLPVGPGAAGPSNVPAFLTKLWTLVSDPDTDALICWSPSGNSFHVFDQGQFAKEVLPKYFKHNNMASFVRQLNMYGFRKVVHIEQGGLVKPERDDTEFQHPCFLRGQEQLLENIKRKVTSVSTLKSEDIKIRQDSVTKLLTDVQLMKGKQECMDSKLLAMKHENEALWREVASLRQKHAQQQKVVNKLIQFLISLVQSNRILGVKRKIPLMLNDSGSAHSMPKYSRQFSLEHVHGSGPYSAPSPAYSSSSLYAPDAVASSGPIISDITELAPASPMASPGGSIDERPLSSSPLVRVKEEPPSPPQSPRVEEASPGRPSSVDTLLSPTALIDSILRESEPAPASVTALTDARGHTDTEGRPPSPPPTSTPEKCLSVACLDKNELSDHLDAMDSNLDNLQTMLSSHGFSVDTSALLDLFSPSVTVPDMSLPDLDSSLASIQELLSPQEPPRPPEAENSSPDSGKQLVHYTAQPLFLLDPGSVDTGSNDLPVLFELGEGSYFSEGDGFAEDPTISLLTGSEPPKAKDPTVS

Molecule | binding signal (fold affinity increase with AZD) [1] | Kd ([2]; 5 uM azadiradione) [nM] | Kd ([2]; no AZD) [nM] | Kd [3] [nM]
HSE (proximal HSE of hsp70A1A promoter) | > 2 | 350 | 800 | 
CC(=O)O[C@@H]1C[C@H]2C(C)(C)C(=O)C=C[C@]2(C)[C@H]2CC[C@]3(C)C(=CC(=O)[C@H]3c3ccoc3)[C@@]21C [AZD, azadiradione] |  |  |  | 1350
